Measured values as given in paper PMC8378821.

Assays:
[1] = target: Mycobacterium smegmatis MSMEG_6251 soluble domain (msTiME-SD) (M. smegmatis mc^2155); assay: crystal structure
[2] = target: Mycobacterium tuberculosis Rv3705c soluble domain (mtTiME-SD) (M. tuberculosis H37Rv); assay: SEC-MALS

Substance	stoichiometry N [1]	stoichiometry N [2]
Mycobacterium smegmatis MSMEG_6251 soluble domain (msTiME-SD) (domain or fragment)	8	–
Mycobacterium tuberculosis Rv3705c soluble domain (mtTiME-SD) (domain or fragment)	–	16
